# Experimental data reported in the Human Domainome abundance scans (Beltran et al. 2025).
# ± gives the uncertainty stated by the source.
# B1: Poly(rC)-binding protein 1, residues 278 to 350; numbered along this chain, Q15365 (parent)
# chain: TQTTHELTIPNNLIGCIIGRQGANINEIRQMSGAQIKIANPVEGSSGRQVTITGSAASISLAQYLINARLSSE
# Variants of: B1
# Assay: abundance fitness (aPCA) (normalised: wild type 0, dead -1); higher = more abundant; growth selection in yeast, the domain comes from the species named
# Details: Homo sapiens
row,Variant,abundance fitness
1,P41C,-0.09 ± 0.065
2,P41S,-0.061 ± 0.046
3,Q35P,-0.641 ± 0.099
4,Q35N,0.088 ± 0.12
5,Q35D,0.001 ± 0.083
6,Q35L,-0.15 ± 0.039
7,Q35H,0.138 ± 0.15
8,Q35E,-0.058 ± 0.065
9,Q35A,-0.11 ± 0.047
10,Q35V,-0.119 ± 0.035
11,Q35G,-0.13 ± 0.039
12,Q35R,0.023 ± 0.044
13,Q35M,-0.09 ± 0.047
14,Q35I,-0.104 ± 0.17
15,Q35T,0.017 ± 0.072
16,Q35C,-0.15 ± 0.09
17,Q35W,-0.21 ± 0.062
18,Q35Y,-0.231 ± 0.28
19,Q35F,-0.233 ± 0.14
20,Q35S,-0.012 ± 0.057
21,S32C,-0.201 ± 0.13
22,S32K,-0.8 ± 0.11
23,S32P,-0.91 ± 0.26
24,S32A,-0.498 ± 0.074

row,Variant,abundance fitness
1,S32G,-0.793 ± 0.054
2,S32D,-0.965 ± 0.19
3,S32F,-1 ± 0.47
4,S32I,-0.882 ± 0.25
5,S32L,-0.703 ± 0.12
6,S32Q,-0.334 ± 0.14
7,S32W,-1.14 ± 0.23
8,S32T,-0.16 ± 0.048
9,S32M,-0.703 ± 0.087
10,S32V,-0.858 ± 0.086
11,S32R,-0.85 ± 0.07
12,A34Q,-0.641 ± 0.12
13,A34P,-0.372 ± 0.15
14,A34E,-1.24 ± 0.3
15,A34F,-0.447 ± 0.35
16,A34W,-0.759 ± 0.12
17,A34G,-0.597 ± 0.079
18,A34K,-0.943 ± 0.2
19,A34L,-1.18 ± 0.31
20,A34V,-0.792 ± 0.15
21,A34T,0.023 ± 0.071
22,A34S,-0.122 ± 0.073
23,A34R,-0.721 ± 0.085
24,A34C,-0.462 ± 0.18

row,Variant,abundance fitness
1,V42N,-0.272 ± 0.13
2,V42W,-0.525 ± 0.061
3,V42P,-0.192 ± 0.062
4,V42C,-0.086 ± 0.085
5,V42M,-0.229 ± 0.067
6,V42L,-0.151 ± 0.045
7,V42G,-0.13 ± 0.035
8,V42R,-0.012 ± 0.032
9,V42K,-0.017 ± 0.052
10,V42E,-0.011 ± 0.044
11,V42Y,-0.141 ± 0.1
12,V42Q,-0.159 ± 0.058
13,V42S,-0.028 ± 0.042
14,V42H,-0.186 ± 0.12
15,V42D,-0.028 ± 0.074
16,V42T,-0.1 ± 0.059
17,V42I,-0.007 ± 0.11
18,K37G,-0.255 ± 0.04
19,K37V,-0.032 ± 0.032
20,K37D,-0.034 ± 0.076
21,K37W,-0.215 ± 0.051
22,K37T,0.051 ± 0.064
23,K37S,-0.11 ± 0.066
24,K37F,-0.41 ± 0.22

row,Variant,abundance fitness
1,K37H,-0.272 ± 0.15
2,K37N,0.032 ± 0.086
3,K37L,-0.142 ± 0.036
4,K37Q,0.083 ± 0.064
5,K37A,-0.109 ± 0.049
6,K37E,0.01 ± 0.051
7,K37M,-0.065 ± 0.045
8,K37I,0.124 ± 0.097
9,K37C,-0.4 ± 0.17
10,K37Y,0.007 ± 0.1
11,K37P,-0.718 ± 0.17
12,E43Q,-0.258 ± 0.079
13,E43I,0.01 ± 0.065
14,E43A,-0.249 ± 0.072
15,E43T,-0.119 ± 0.056
16,E43M,0.05 ± 0.07
17,E43N,-0.024 ± 0.054
18,E43F,-0.179 ± 0.067
19,E43L,-0.039 ± 0.045
20,E43S,-0.02 ± 0.045
21,E43H,-0.021 ± 0.054
22,E43G,-0.115 ± 0.077
23,E43W,-0.18 ± 0.091
24,E43R,-0.061 ± 0.046

row,Variant,abundance fitness
1,E43V,0.073 ± 0.057
2,E43Y,-0.051 ± 0.052
3,E43C,-0.168 ± 0.083
4,G47L,0 ± 0.03
5,G47S,0.023 ± 0.043
6,G47F,-0.116 ± 0.096
7,G47Q,0.054 ± 0.056
8,G47N,0.047 ± 0.099
9,G47M,0.043 ± 0.041
10,G47K,-0.01 ± 0.052
11,G47I,-0.379 ± 0.18
12,G47A,0.013 ± 0.036
13,G47W,-0.073 ± 0.047
14,G47D,0.032 ± 0.062
15,G47Y,-0.008 ± 0.085
16,G47E,0.067 ± 0.039
17,G47P,-0.491 ± 0.075
18,G47V,0.017 ± 0.029
19,G47R,-0.062 ± 0.035
20,G47T,0.008 ± 0.052
21,G47H,-0.129 ± 0.094
22,G47C,-0.097 ± 0.062
23,Q49D,-0.263 ± 0.069
24,Q49A,0.006 ± 0.043

row,Variant,abundance fitness
1,Q49I,-0.033 ± 0.063
2,Q49H,-0.073 ± 0.069
3,Q49L,0.03 ± 0.041
4,Q49S,0.008 ± 0.04
5,Q49R,0.049 ± 0.029
6,Q49C,0.006 ± 0.051
7,Q49K,-0.049 ± 0.063
8,Q49F,-0.533 ± 0.16
9,Q49N,-0.054 ± 0.058
10,Q49M,-0.081 ± 0.045
11,Q49E,-0.204 ± 0.064
12,Q49V,0.043 ± 0.034
13,Q49P,-0.298 ± 0.064
14,Q49W,-0.613 ± 0.071
15,I38R,-0.737 ± 0.068
16,I38D,-0.754 ± 0.14
17,I38V,-0.094 ± 0.041
18,I38W,-0.53 ± 0.063
19,I38S,-0.814 ± 0.13
20,I38P,-0.631 ± 0.12
21,I38K,-0.612 ± 0.11
22,I38L,-0.11 ± 0.048
23,I38C,-0.793 ± 0.35
24,I38A,-0.672 ± 0.07

row,Variant,abundance fitness
1,I38F,-0.301 ± 0.16
2,I38E,-0.679 ± 0.085
3,I38Q,-0.828 ± 0.14
4,I38M,-0.333 ± 0.077
5,I38G,-0.727 ± 0.054
6,I38T,-0.403 ± 0.11
7,R48E,-0.752 ± 0.088
8,R48V,-0.093 ± 0.034
9,R48H,-0.118 ± 0.085
10,R48G,-0.597 ± 0.043
11,R48I,-0.205 ± 0.08
12,R48N,-0.368 ± 0.1
13,R48D,-0.626 ± 0.12
14,R48T,-0.158 ± 0.049
15,R48W,-0.184 ± 0.044
16,R48A,-0.113 ± 0.04
17,R48L,-0.328 ± 0.046
18,R48C,-0.114 ± 0.05
19,R48M,-0.217 ± 0.054
20,R48Y,0.045 ± 0.064
21,R48Q,-0.257 ± 0.058
22,R48P,-0.714 ± 0.11
23,R48K,-0.451 ± 0.066
